As usually defined, the IC50 is the concentration that inhibits the measured activity by half.

Where no end group is shown, it is not given here.

Results on four molecules are retold here after US7622265B2, “Methods and compositions for modulating prostasin” (Genentech, Inc., priority 2005, dated 2009).

Test [1] concerns the target T1, prostasin (Homo sapiens, UniProt Q16651). Put plainly: Enzyme inhibition assay (amidolytic activity of prostasin towards S2765). The format is biochemical. Details: made in house; host or cells: CHO cells (transient transfection, pRK5E); purified from conditioned medium on aprotinin-agarose. The note with it: for inhibition of prostasin enzymatic activity (in words): substrate S2765. As for the experimental part:
The increase in absorbance at 405 nm was monitored on a kinetic microplate reader (Molecular Devices, Sunnyvale, Calif.). The linear rates of the increase in absorbance were expressed as percentage activities (100%×vi/v0). […] At least three independent experiments were performed for each inhibitor.
Target sequence in this assay (Q16651 45-322 limits assumed, other chains not shown): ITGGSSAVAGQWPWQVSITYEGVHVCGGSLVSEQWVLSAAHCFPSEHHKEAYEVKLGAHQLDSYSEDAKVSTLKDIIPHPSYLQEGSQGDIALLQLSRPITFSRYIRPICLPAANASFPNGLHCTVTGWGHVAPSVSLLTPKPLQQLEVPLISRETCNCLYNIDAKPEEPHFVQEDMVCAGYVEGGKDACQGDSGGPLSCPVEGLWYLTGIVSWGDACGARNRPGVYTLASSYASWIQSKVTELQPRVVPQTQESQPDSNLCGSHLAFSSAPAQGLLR

The target in test [2] is T1, prostasin. Put plainly: Prostasin binding assay (complex formation, immunoblotting). Details: made in house; host or cells: CHO cells (transient transfection, pRK5E); purified from conditioned medium on aprotinin-agarose. The note with it: 20 nM sHAI-1B, 37° C., 0.5 or 2 h, immunoblot with anti-HAI-1B polyclonal antibody. As for the experimental part: Prostasin binding assay—Purified prostasin and sHAI-1B were diluted in 20 mM Tris-Cl, pH 9.0 containing 0.01% Triton X-100 (TT buffer) to the final concentration as indicated. The mixture was incubated at 37° C. for 0.5 h or 2 h and the reaction was stopped by addition of SDS sample buffer with DTT. 30 μl of each sample was analyzed by immunoblotting.
Prostasin and sHAI-1B form 1:1 complexes—Soluble prostasin was purified from conditioned medium of CHO cells transiently transfected with full-length prostasin. […] Prostasin was incubated with sHAI-1B comprising the entire extracellular domain of HAI-1B (Kirchhofer, Peek et al. 2003) at different molar ratios (FIG.2A). Increasing concentrations of prostasin shifted the sHAI-1B band (55 kDa) to the higher molecular mass species of 85 kDa, indicating the formation of prostasin:sHAI-1B complexes. At a 10-fold molar excess of prostasin, almost all sHAI-1B was bound to prostasin. Immunoblotting with anti-prostasin antibody confirmed that the 85 kDa band comprised complexes of sHAI-1B and prostasin (data not shown).
For orientation: A western blot detects proteins with antibodies after separation by electrophoresis.
Target sequence in this assay (Q16651 45-322 limits assumed, other chains not shown): as above

Test [3] deals with T1, prostasin. The note with it: purified enzyme system; cited from earlier work.
Target sequence in this assay (Q16651 33-343, species assumed): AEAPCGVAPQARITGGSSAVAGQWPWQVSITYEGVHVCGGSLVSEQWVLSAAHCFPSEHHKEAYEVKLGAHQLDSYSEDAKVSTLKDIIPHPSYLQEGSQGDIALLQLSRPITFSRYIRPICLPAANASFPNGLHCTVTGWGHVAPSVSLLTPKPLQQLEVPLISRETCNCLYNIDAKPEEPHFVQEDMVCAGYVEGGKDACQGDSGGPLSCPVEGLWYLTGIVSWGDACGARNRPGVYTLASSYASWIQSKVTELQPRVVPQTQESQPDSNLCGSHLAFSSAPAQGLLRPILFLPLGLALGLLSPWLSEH

With “APPI: Alzheimer's amyloid β protein precursor inhibitor, a Kunitz domain (VREVCSEQAETGPCRAMISRWYFDVTEGKCAPFFYGGCGGNRNNFDTEEYCMAVCGSA; ends and bridges not checked; cysteine pairing not given here) [reference compound]”, the “inhibition of prostasin enzymatic activity (in words)” value in test [1] (prostasin 3 nM) is recorded as “did not inhibit prostasin”. Also, the IC50 in test [1] (prostasin 3 nM, substrate S2765 0.05 mM, TT buffer, 20 min preincubation at room temperature, averages ± S.D. of at least three independent experiments, read-out: IC50 (nM), effects of inhibitors on the activity of prostasin) is more than 1000 nM.

B1: sHAI-1B K401A: KD2 mutant of sHAI-1B, P1 residue Lys401 (in KD2) changed to Ala (protein)
chain: GPPPAPPGLPAGADCLNSFTAGVPGFVLDTNASVSNGATFLESPTVRRGWDCVRACCTTQNCNLALVELQPDRGEDAIAACFLINCLYEQNFVCKFAPREGFINYLTREVYRSYRQLRTQGFGGSGIPKAWAGIDLKVQPQEPLVLKDVENTDWRLLRGDTDVRVERKDPNQVELWGLKEGTYLFQLTVTSSDHPEDTANVTVTVLSTKQTEDYCLASNKVGRCRGSFPRWYYDPTEQICKSFVYGGCLGNKNNYLREEECILACRGVQGGPLRGSSGAQATFPQGPSMERRHPVCSGTCQPTQFRCSNGCCIDSFLECDDTPNCPDASDEAACEKYTSGFDELQRIHFPSDKGHCVDLPDTGLCAESIPRWYYNPFSEHCARFTYGGCYGNKNNFEEEQQCLESCRGISKKDVFGLRREIPIPSTGSVE
On to B1, for which the “complex formation with prostasin” value in test [2] is on record as “still formed an 85 kDa complex with prostasin”. For the same molecule, the “inhibition of prostasin enzymatic activity (in words)” value in test [1] (prostasin 3 nM) is recorded as “inhibitory potency comparable to the wildtype”.

B2: sHAI-1B R260A: KD1 mutant of sHAI-1B, P1 residue Arg260 (in KD1) changed to Ala (protein)
chain: GPPPAPPGLPAGADCLNSFTAGVPGFVLDTNASVSNGATFLESPTVRRGWDCVRACCTTQNCNLALVELQPDRGEDAIAACFLINCLYEQNFVCKFAPREGFINYLTREVYRSYRQLRTQGFGGSGIPKAWAGIDLKVQPQEPLVLKDVENTDWRLLRGDTDVRVERKDPNQVELWGLKEGTYLFQLTVTSSDHPEDTANVTVTVLSTKQTEDYCLASNKVGRCAGSFPRWYYDPTEQICKSFVYGGCLGNKNNYLREEECILACRGVQGGPLRGSSGAQATFPQGPSMERRHPVCSGTCQPTQFRCSNGCCIDSFLECDDTPNCPDASDEAACEKYTSGFDELQRIHFPSDKGHCVDLPDTGLCKESIPRWYYNPFSEHCARFTYGGCYGNKNNFEEEQQCLESCRGISKKDVFGLRREIPIPSTGSVE
Turning to B2, the “complex formation with prostasin” value in test [2] is recorded as “did not”. In addition, in test [1] (IC50 compared with wildtype sHAI-1B), the “fold less potent than wildtype sHAI-1B” value is reported as “at least 18 fold”.

B3: HAI-2: hepatocyte growth factor activator inhibitor-2, a bi-Kunitz type serine protease inhibitor (protein, UniProt O43291 28-252, looked up)
Kunitz-type protease …: ADRERSIHDFCLVSKVVGRCRASMPRWWYNVTDGSCQLFVYGGCDGNSNNYLTKEECLKKCATVTENATGDLATSRNAADSSVPSAPRRQDSEDHSSDMFNYEEYCTANAVTGPCRASFPRWYFDVERNSCNNFIYGGCRGNKNSYRSEEACMLRCFRQQENPPLPLGSKVVVLAGLFVMVLILFLGASMVYLIRVARRNQERALRTVWSSGDDKEQLVKNTYVL
B3: the “inhibition of prostasin activity (in words)” value in test [3] is “potently inhibit prostasin activity”.
